Reference: paper PMC11729338, “Molecular Characterization and Interaction between Human VEGF-D and VEGFR-3” (Journal of Microbiology and Biotechnology, 2024)
Where a chain is given by its changes, count along the chain named. Names and notes keep the numbering of the source. Blank lines part the entries; values can stand above or below the binder they belong to.

Tests used:
[1] = molecular target: T1, His-tagged human VEGFR-3 (residues 30-326) (human, UniProt P35916 30-326); assay: SPR; VEGFR-3 immobilised on a CM5 chip by amine coupling (2,300 response units); Biacore T100, 25°C; running buffer 50 mM HEPES (pH 7.7), 50 mM NaCl or 50 mM Tris-HCl (7.82), 50 mM NaCl; VEGF-D or mutant injected at 0.125, 0.25, 0.5, 1 uM, 10 ul/min; settings: both partners purified
T1 construct: Vascular endothelial growth factor receptor 3 (VEGFR-3), human, residues 30-326 (extracellular Ig domains 1-3); The primers fit P30 to I326; the reverse primer has no stop codon, so vector residues and a second His tag may follow at the C-terminus (my surmise); also called Wild-type VEGFR-3; extracellular domains 1, 2 and 3
T1 sequence (looked up): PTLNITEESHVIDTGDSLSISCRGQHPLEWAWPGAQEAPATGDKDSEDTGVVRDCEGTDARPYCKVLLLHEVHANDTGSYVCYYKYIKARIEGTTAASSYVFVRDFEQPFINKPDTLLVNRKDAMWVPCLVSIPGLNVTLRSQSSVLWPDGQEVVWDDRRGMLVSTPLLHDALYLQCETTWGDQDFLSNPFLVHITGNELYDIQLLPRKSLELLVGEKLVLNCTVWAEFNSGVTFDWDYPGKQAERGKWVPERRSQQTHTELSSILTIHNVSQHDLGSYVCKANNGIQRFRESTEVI

[2] = molecular target: T2, His-tagged VEGFR-3 (residues 30-326) (human, UniProt P35916 30-326); assay: pull-down; 50 ug GST-tagged VEGF-D or mutant on Glutathione Sepharose 4 Fast Flow beads, 50 ug His-VEGFR-3 in 1X PBS, on ice overnight; eluted with 30 mM glutathione; Western blot with anti-His and anti-GST; settings: both partners purified
T2 construct: human VEGFR-3, residues 30-326 (extracellular domains 1, 2 and 3); Cloned in pET-28a; In the functional rows it stands for the VEGFR-3 of MDA-MB-231 cells; also called His-VEGFR-3; extracellular domains 1, 2, and 3; source: for SEC co-lysed with His-tagged VEGF-D cells and purified together on Ni-NTA
T2 sequence (looked up): T1 sequence (looked up)

[3] = molecular target: T2, His-tagged VEGFR-3 (residues 30-326); assay: cell-based or functional assay
[4] = molecular target: T2, His-tagged VEGFR-3 (residues 30-326); assay: SPR; VEGFR-3 immobilised on a CM5 chip by amine coupling (2,300 response units); VEGF-D or mutant injected at 0.125, 0.25, 0.5 and 1 uM, 10 ul/min; Biacore T100, 25 °C; 50 mM HEPES (pH 7.7), 50 mM NaCl or 50 mM Tris-HCl (7.82), 50 mM NaCl; settings: both partners purified
[5] = molecular target: T2, His-tagged VEGFR-3 (residues 30-326); assay: SEC; His-tagged VEGF-D and His-tagged VEGFR-3 cells co-lysed, purified together on Ni-NTA, incubated 24 h at 4 °C; Superdex 200 10/300 GL, 50 mM Tris-HCl (pH 7.82), 200 mM NaCl, 0.1% glycerol, sample 17 mg/ml, 0.4 ml/min; fractions by SDS-PAGE; settings: partners not purified

B1: His-tagged wild-type human VEGF-D (residues 89-205) (ligand, UniProt O43915 89-205, looked up)
chain: FAATFYDIETLKVIDEEWQRTQCSPRETCVEVASELGKSTNTFFKPPCVNVFRCGGCCNEESLICMNTSTSYISKQLFEISVPLTSVPELVPVKVANHTGCKCLPTAPRHPYSIIRR
notes: Vascular endothelial growth factor D (VEGF-D), human, residues 89-205 (major mature form); Cloned in pET-28a; also called Wild-type VEGF-D; major form
Kd [1]: 268 nM | koff [1]: 0.00115 s⁻¹ | kon [1]: 4310 M⁻¹ s⁻¹

B3: His-tagged VEGF-D (residues 89-205), wild type (ligand, human, UniProt O43915 89-205, looked up)
chain: B1 chain
notes: human VEGF-D, residues 89-205 (major mature form); Cloned in pET-28a; also called wild-type VEGF-D; mature VEGF-D; source: for SEC co-lysed with His-tagged VEGFR-3 cells and purified together on Ni-NTA
MTT cell viability of MDA-MB-231 cells, 0-600 ng VEGF-D, 24 h; EC50 [3]: 238 ng | Kd [4]: 270 nM | stoichiometry N [5]: 1

B5: His-tagged VEGF-D (residues 89-205) D103A/Q110A (ligand, human, UniProt O43915 89-205, looked up)
chain: B1 chain with D15A, Q22A
notes: human VEGF-D, residues 89-205, D103A and Q110A; also called D103A/Q110A mutant; double mutated form of VEGF-D; source: E. coli BL21 (DE3), purified
Kd [4]: 530 nM

B6: His-tagged VEGF-D (residues 89-205) D103A/Q110A (ligand, human, UniProt O43915 89-205, looked up)
chain: B1 chain with D15A, Q22A
notes: Vascular endothelial growth factor D (VEGF-D), human, residues 89-205, double mutant D103A/Q110A; same limits as Dm1 (see its note on the primers); source: E. coli BL21 (DE3), purified
Kd [1]: 533 nM | koff [1]: 0.00103 s⁻¹ | kon [1]: 1940 M⁻¹ s⁻¹

Second part, the binder after the results:

binding result [2]: binds
B2: GST-tagged VEGF-D (residues 89-205) I102A (ligand, human, UniProt O43915 89-205, looked up)
chain: B1 chain with I14A
notes: human VEGF-D, residues 89-205, I102A; Cloned in pGEX-4T-1

binding result [2]: binds
B4: GST-tagged VEGF-D (residues 89-205) E105A (ligand, human, UniProt O43915 89-205, looked up)
chain: B1 chain with E17A
notes: human VEGF-D, residues 89-205, E105A; Cloned in pGEX-4T-1

Kd [1]: 956 nM | koff [1]: 0.0015 s⁻¹ | kon [1]: 1570 M⁻¹ s⁻¹
B7: His-tagged VEGF-D (residues 89-205) I102A/E105A (ligand, human, UniProt O43915 89-205, looked up)
chain: B1 chain with I14A, E17A
notes: Vascular endothelial growth factor D (VEGF-D), human, residues 89-205, double mutant I102A/E105A; same limits as Dm1 (see its note on the primers); source: E. coli BL21 (DE3), purified

Kd [4]: 960 nM
B8: His-tagged VEGF-D (residues 89-205) I102A/E105A (ligand, human, UniProt O43915 89-205, looked up)
chain: B1 chain with I14A, E17A
notes: human VEGF-D, residues 89-205, I102A and E105A; also called double mutated form of VEGF-D; source: E. coli BL21 (DE3), purified
